# System: supercharged variant of human trypsinogen-1 (PRSS1 sc)
# Sequence (chain, as listed by the source mutant): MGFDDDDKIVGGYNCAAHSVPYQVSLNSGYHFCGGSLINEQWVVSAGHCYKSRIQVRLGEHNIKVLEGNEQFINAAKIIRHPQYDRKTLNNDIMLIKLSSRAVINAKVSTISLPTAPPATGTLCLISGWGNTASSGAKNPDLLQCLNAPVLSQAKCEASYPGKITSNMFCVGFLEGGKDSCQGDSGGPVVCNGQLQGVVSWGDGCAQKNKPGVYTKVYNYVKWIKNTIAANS
substance,measurement,value
trypsin,autoactivation (trypsin activity on CBZ-GPR-pNA after incubation with trypsin),PRSS1 sc (SEQ ID NO 01) does not show a significant autoactivation
